Laboratory results taken from patent US20210380702A1 (Regeneron, published 2021).
Where “and” joins values, the source holds several entries; their conditions need not be identical. Equal entries are not always repeated.

Tests used:
[1] = target: T1, recombinant human PD-L1 (amino acids 19-239 of NP_054862.1) expressed with a C-terminal human IgG1 Fc tag (human); experiment: SPR (Biacore 3000): 100 nM hPD-L1-hFc + 500 nM mAb on captured hPD-1-mFc, 25C
T1 construct: also called hPD-L1-hFc
Procedure: Next, inhibition studies for anti-PD-L1 monoclonal antibodies expressed with human Fc were performed on Biacore 3000 instrument. […] The entire experiment was performed at 25° C. in HBST running buffer (0.01 M HEPES pH7.4, 0.15M NaCl, 3 mM EDTA, 0.05% v/v Surfactant P20). The real-time binding responses were monitored during the entire course of the experiment and the binding response at the end of every step was recorded.

[2] = target: T2, full length human PD-L1 (amino acids 1 to 290 of NP_054862.1) on transfected cells (human, UniProt Q9NZQ7 19-290); experiment: FACS, 100 nM antibody
T2 construct: also called HEK293/hPD-L1; Raji/hPD-L1
Procedure: (§1) The binding of anti-PD-L1 antibodies to a human embryonic kidney cell line (HEK293; ATCC, #CRL-1573) stably transfected with full length human PD-L1 (amino acids 1 to 290 of accession number NP_054862.1) (HEK293/hPD-L1) was determined by FACS.
(§2) For the assay, adherent cells were detached using enzyme-free dissociation buffer and blocked with complete medium. Cells were centrifuged and resuspended at a concentration of 2.8×10\hat{ }6 cells/mL in cold PBS containing 2% FBS. […] Cells were washed with D-PBS containing 2% FBS to remove unbound secondary detection reagents and fluorescence measurements were acquired using a HyperCyte (IntelliCyt, Inc.) flow cytometer. Data was analyzed using HyperCyte software.

[3] = target: T3, recombinant cynomolgus monkey PD-L1 expressed with a C-terminal mouse IgG2a Fc tag (cynomolgus monkey); experiment: SPR (Biacore), mAb captured, 37C
T3 construct: also called MfPD-L1-mFc; monkey PD-L1-mFc

[4] = target: T2, full length human PD-L1 (amino acids 1 …); experiment: FACS, 100 nM antibody, HEK293/hPD-L1 cells
Procedure: as §1, §2

[5] = target: T4, recombinant human PD-L1 (amino acids 19-239 of NP_054862.1) expressed with a C-terminal mouse IgG2a Fc tag (human); experiment: competition ELISA: 0.5 nM hPD-L1-mFc binding to coated hPD-1-hFc
T4 construct: called dimeric; also called hPD-L1-mFc
Procedure: (§3) The ability of monoclonal anti-PD-L1 antibodies to block human PD-L1 from binding to its binding partners, the human PD-1 and the human B7-1 receptors, was measured using two competition sandwich ELISA formats.
(§4) A dimeric human PD-1 protein comprised of a portion of the extracellular domain (amino acids 25-170 of accession number NP_005009.2 with a C93S change) that was expressed with a C-terminal hFc tag (hPD-1-hFc; SEQ ID: 350) and a dimeric human B7-1 protein comprised of a portion of the extracellular domain expressed with C-terminal hFc tag and hexahistidine tags (hB7-1-hFc-6His; R&D Systems, #140-B1) were separately coated at 2 μg/mL on a 96-well microtiter plate in a PBS buffer overnight at 4° C. […] These antibody-protein complexes were then incubated for 1 hour at room temperature (RT). […] The complexes were allowed to bind to the coated plates for 1 hour at RT. […] Samples were developed with a TMB solution (BD Biosciences, #51-2606KC and #51-2607KC) to produce a colorimetric reaction and neutralized with 1M sulfuric acid before measuring absorbance at 450 nm on a Victor X5 plate reader. Data analysis used a sigmoidal dose-response model within Prism™ software.

[6] = target: T4, recombinant human PD-L1 (amino acids …); experiment: competition ELISA: 8 nM hPD-L1-mFc binding to coated hB7-1-hFc-6His
Procedure: as §3, §4

[7] = target: T2, full length human PD-L1 (amino acids 1 …); experiment: cell-based or functional assay
[8] = target: T4, recombinant human PD-L1 (amino acids …); experiment: BLI (Octet Red96): 100 nM hPD-L1-mFc + 500 nM mAb on captured hPD-1-hFc, 25C
Procedure: Inhibition studies for anti-PD-L1 monoclonal antibodies expressed with mouse Fc were performed on an Octet Red96 instrument. […] Approximately 0.8 nm to 1.2 nm of recombinant human PD-1 expressed with a C-terminal human IgG1 Fc tag (hPD-1-hFc; SEQ ID: 350) was captured using anti-human IgG Fc capture biosensors. […] The entire experiment was performed at 25° C. in Octet HBST buffer (0.01 M HEPES pH7.4, 0.15M NaCl, 3 mM EDTA, 0.05% v/v Surfactant P20, 0.1 mg/mL BSA) with a plate shaking at a speed of 1000 rpm. The biosensors were washed in Octet HBST buffer in between each step of the experiment. The real-time binding response was monitored during the course of the experiment and the binding response at the end of every step was recorded.

T3 sequence (chain, as listed by the source limits assumed): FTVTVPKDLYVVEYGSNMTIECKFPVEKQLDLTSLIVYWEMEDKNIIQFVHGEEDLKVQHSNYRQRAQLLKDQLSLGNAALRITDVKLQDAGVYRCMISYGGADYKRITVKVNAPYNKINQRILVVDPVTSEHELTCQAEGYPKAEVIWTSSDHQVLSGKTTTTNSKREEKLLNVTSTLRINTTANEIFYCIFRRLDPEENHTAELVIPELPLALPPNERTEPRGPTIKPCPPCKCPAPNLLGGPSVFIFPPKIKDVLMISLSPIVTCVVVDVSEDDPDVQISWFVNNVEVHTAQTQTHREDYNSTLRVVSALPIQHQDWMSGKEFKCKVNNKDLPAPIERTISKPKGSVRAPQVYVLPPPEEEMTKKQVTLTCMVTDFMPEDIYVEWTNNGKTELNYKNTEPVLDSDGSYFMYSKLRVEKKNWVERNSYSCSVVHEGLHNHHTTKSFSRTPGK
T1 sequence (chain, as listed by the source limits assumed): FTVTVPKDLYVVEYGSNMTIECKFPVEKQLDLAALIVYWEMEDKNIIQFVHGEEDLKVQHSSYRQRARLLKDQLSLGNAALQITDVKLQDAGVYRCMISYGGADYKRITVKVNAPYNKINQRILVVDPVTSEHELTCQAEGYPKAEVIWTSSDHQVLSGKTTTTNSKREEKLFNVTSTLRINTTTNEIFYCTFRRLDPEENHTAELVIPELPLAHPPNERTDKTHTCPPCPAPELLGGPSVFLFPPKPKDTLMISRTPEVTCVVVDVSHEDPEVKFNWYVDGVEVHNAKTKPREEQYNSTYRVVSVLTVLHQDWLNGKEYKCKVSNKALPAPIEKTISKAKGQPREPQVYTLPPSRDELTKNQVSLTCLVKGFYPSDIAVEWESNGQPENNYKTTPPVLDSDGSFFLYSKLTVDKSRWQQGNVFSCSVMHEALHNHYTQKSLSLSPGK
T2 sequence (Q9NZQ7 19-290 limits assumed): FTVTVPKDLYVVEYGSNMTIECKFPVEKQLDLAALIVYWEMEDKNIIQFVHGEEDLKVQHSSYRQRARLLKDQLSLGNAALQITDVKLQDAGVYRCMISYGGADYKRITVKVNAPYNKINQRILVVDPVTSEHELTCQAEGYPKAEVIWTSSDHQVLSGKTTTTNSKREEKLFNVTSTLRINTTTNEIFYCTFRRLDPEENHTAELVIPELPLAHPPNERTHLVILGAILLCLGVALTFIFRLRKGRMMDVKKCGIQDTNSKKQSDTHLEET
T4 sequence (chain, as listed by the source limits assumed): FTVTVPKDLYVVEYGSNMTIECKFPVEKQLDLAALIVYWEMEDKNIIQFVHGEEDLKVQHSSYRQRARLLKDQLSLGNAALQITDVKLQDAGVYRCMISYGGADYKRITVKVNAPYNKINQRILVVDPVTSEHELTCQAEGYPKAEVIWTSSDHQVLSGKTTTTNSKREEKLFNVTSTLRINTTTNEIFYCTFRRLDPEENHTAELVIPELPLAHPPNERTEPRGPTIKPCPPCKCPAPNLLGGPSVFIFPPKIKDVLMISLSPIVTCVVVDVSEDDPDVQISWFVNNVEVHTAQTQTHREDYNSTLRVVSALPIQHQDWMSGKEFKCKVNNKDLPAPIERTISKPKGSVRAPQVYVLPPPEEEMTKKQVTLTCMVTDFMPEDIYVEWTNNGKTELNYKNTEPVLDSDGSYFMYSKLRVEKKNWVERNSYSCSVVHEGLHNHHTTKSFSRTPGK

| Binder | % Blocking [1] [%] | Ratio of HEK293/hPD-L1 to HEK293 parental cells [2] | Kd [3] | koff [3] | kon [3] | t1/2 [3] | MFI [4] [MFI] | % maximum blocking [5] [%] | IC50 [5] [nM] | % maximum blocking [6] [%] | IC50 [6] [nM] | Emax mean [%] @ 100 nM [7] [%] | Concentration [M] of Antibody at 125% activation [7] [M] | % Blocking [8] [%] |
| --- | --- | --- | --- | --- | --- | --- | --- | --- | --- | --- | --- | --- | --- | --- |
| H1H9364P2 (antibody, V domains shown, human IgG1 Fc (H1H prefix)) VH: EVQLVESGGGLVQPGRSLRLSCAASGFTFDDYALHWVRQAPGKGLEWVSGISWTGGTIDYADSVKGRFTISRDNAKNSLYLQMSSLRTEDTAIYYCTRDIRGNWKYGGWFDPWGQGTLVTVSS VL: not shown | 86 | 157 | 0.0471 nM and 0.028 nM | 0.000111 s⁻¹ and 6.76e-05 s⁻¹ | 2.36e+06 M⁻¹ s⁻¹ and 2.41e+06 M⁻¹ s⁻¹ | 1.73 h and 2.85 h | 324000 | 100 | < 0.25 | 101 | 4.1 |  |  |  |
| H1H9354P2 (antibody, V domains shown, human IgG1 Fc (H1H prefix)) VH: EVQLVESGGGLVQPGGSLRLSCEASGFTVGVNHMNWVRQAPGKGLEWVSVIFSSGRTFYGDYVKGRLTIFRQTSQNTVYLQMNSLRSEDTAIYYCARGIGGLDIWGRGTMVTVSS VL: not shown | -428 | 125 | 0.746 nM | 0.000203 s⁻¹ | 272000 M⁻¹ s⁻¹ | 0.95 h | 276000 | 34 | 0.53 | -13 |  | 89.9 |  |  |
| H1H9329P (antibody, V domains shown, human IgG1 Fc (H1H prefix)) VH: EVQLVESGGGLVQSGGSLRLSCAASGFTFSSYWMSWVRQAPGKGLEWVANIKQDGSEKYYVDSVKGRFTISRDNAKNSLYLQMNSLRADDTAVYYCARDDIVVVPAPMGYYYYYFGMDVWGQGTTVTVSS VL: DIQMTQSPSSLSASVGDRVTITCRASQGIRNDLGWYQQKPGKAPKRLIYAASSLQSGVPSRFSGSGSGTEFTLTISSLQPEDFATYYCLQHNSYPYTFGQGTKLEIK | 97 | 188 | 0.708 nM | 0.00154 s⁻¹ | 2.18e+06 M⁻¹ s⁻¹ | 0.133 h | 282000 | 100 | < 0.25 | 100 | 4.9 | 124 |  |  |
| H2aM8323N (antibody, V domains shown, human variable regions, mouse IgG2 Fc (H2aM prefix); also called H2M8323N) VH: QVQLVQSGAEVKMPGSSVRVSCKASGGIFSSSTISWVRQAPGQGLEWMGEIIPVFGTVNYAQKFQDRVIFTADESTTTAYMELSSLKSGDTAVYFCARNWGLGSFYIWGQGTMVTVSS VL: EIVLTQSPGTLSLSPGERATLSCRASQSFNFNYLAWYQQKPGQAPRLLIYGASSRATGIPDRFSGSGSGTDFTLTINRLEPEDFGVFYCQQYESAPWTFGQGTKVEIK |  | 73 |  |  |  |  | 163000 | 100 | < 0.25 | 99 | < 4 | 173 | 2.2e-10 | 94 |
| H1H9336P (antibody, V domains shown, human IgG1 Fc (H1H prefix)) VH: EVQLVESGGGLVQPGRSLRLSCAASGFTFDDFAMHWVRQAPGKGLEWVSGISWTGGNMDYANSVKGRFTISREDAKNSLYLQMNSLRAADTALYYCVKDIRGIVATGGAFDIWGRGTMVTVSS VL: DIQMTQSPSSLSASVGDRVTISCRASQTISTYLNWFQQKPGKAPKLLIYVVSSLQSGVPSRFSGSGSGTDFTLTISSLQPEDFATYYCQQSYSTPFTFGPGTKVDIK | 84 | 168 | 0.0247 nM | 4.6e-05 s⁻¹ | 1.86e+06 M⁻¹ s⁻¹ | 4.18 h | 379000 | 100 | < 0.25 | 99 | 4.4 | 163 | 9.81e-11 |  |
| H2aM8321N (antibody, V domains shown, human variable regions, mouse IgG2 Fc (H2aM prefix); also called H2M8321N) VH: EERLVESGGDLVQPGGSLRLSCAASGITVGTNYMNWVRQAPGKGLEWVSVISSGGNTHYADSVKGRFIMSRQTSKNTLYLQMNSLETEDTAVYYCARGIRGLDVWGQGTMVTVSS VL: DIQMTQSPSSLSASVGDRVTITCRASQSMSSYLNWYQQKPGRAPKLLIFAASSLQSGVPSRFSGSGSGTDFTLTISSLQPEDFATYYCQQSYSTPPITFGQGTRLEIK |  | 85 |  |  |  |  | 112000 | 10 |  | -124 |  | 117 |  | -94 |
| H1H9345P2 (antibody, V domains shown, human IgG1 Fc (H1H prefix)) VH: EVQLVESGGGLVQPGGSLRLSCAASGFTISTNYMNWVRQAPGKGLEWVAVIYSSGSTYYIDSVKGRFTISRLTSKNTVYLQMSSLNSEDTAVYYCARGIRGFDIWGQGTMVTVSS VL: not shown | -422 | 121 | 0.339 nM | 0.000292 s⁻¹ | 861000 M⁻¹ s⁻¹ | 0.667 h | 228000 | 26 | < 0.25 | -34 |  | 89.2 |  |  |
| H2aM8306N (antibody, V domains shown, human variable regions, mouse IgG2 Fc (H2aM prefix); also called H2M8306N) VH: EVQLVESGGGLVQPGGSLRLSCAASGFTFSRFWMSWVRQAPGKGLEWVANINQDGTEKYYVDSVKGRFTISRDNAKNSLYLQMNSLRAGDTAVYYCANTYYDFWSGHFDYWGQGTLVTVSS VL: not shown |  | 246 |  |  |  |  | 316000 | 99 | < 0.25 | 93 | < 4 | 167 | 3.78e-09 | 94 |
